Experimental data published in US20080220446A1, “Method for Detecting and/or Removing Protein and/or Peptide Comprising a Cross-Beta Structure From an Aqueous Solution Comprising a Protein” (priority 2005, published 2008).

Legend:
[1] = molecular target: T1, tPA (Homo sapiens, UniProt P00750); assay: Plasminogen-activation assay (tPA activation, S-2251); format: biochemical; conditions: β2GPI preparations, 100 μg ml^−1
Method: Plasmin (Pls) activity was assayed as described^16. Peptides and proteins that were tested for their stimulatory ability were regularly used at 100 μg ml^−1. […] Chromogenic substrate S-2251 (Chromogenix, Instrumentation Laboratory SpA, Milano, Italy) was used to measure Pls activity. Conversion of zymogen factor XII (#233490, Calbiochem, EMD Biosciences, Inc., San Diego, Calif.) to proteolytically active factor XII (factor XIIa) was assayed by measurement of the conversion of chromogenic substrate Chromozym-PK (Roche Diagnostics, Almere, The Netherlands) by kallikrein. Chromozym-PK was used at a concentration of 0.3 mM. […] The conversion of Chromozym-PK was recorded kinetically at 37° C. for at least 60 minutes. […]
Formulated protein therapeutics were obtained from the local hospital pharmacy and were used as supplied by the manufacturers. […] Enhancement in fluorescence of ThT and Congo red was measured with all formulated protein therapeutics. […]
(§1) To prepare structurally altered ovalbumin (OVA) with amyloid cross-β structures, purified OVA (Sigma, A-7641, lot 071k7094) was heated to 85° C. […] Native OVA (nOVA) and heat-denatured OVA (dOVA) were tested in the ThT fluorescence assay and in the Plg-activation assay. In the fluorescence assay and in the Plg-activation assay, 25 and 100 μg ml^−1 nOVA and dOVA were tested, respectively. […]

[2] = Thioflavin T fluorescence of protein solutions; format: physicochemical
Method: Fluorescence of ThT—protein/peptide adducts was measured as follows. […] Fluorescence was measured at 485 nm upon excitation at 435 nm. Background signals from buffer, buffer with ThT and protein/peptide solution without ThT were subtracted from corresponding measurements with protein solution incubated with ThT. Regularly, fluorescence of Aβ was used as a positive control, and fluorescence of FP10, a non-amyloid fibrin fragment^16, was used as a negative control. Fluorescence was measured in triplicate on a Hitachi F-4500 fluorescence spectrophotometer (Ltd., Tokyo, Japan).
Formulated protein therapeutics were obtained from the local hospital pharmacy and were used as supplied by the manufacturers. […] Lyophilized therapeutics were dissolved according to the manufacturers recommendations. GH, zinc-insulin, Cealb and gelatin were stored at −20, 4, room temperature, 37 and 65° C. Other protein therapeutics were only kept at 4° C., and assayed for the presence of cross-β structure at shown time points. Enhancement in fluorescence of ThT and Congo red was measured with all formulated protein therapeutics. […]
ThT fluorescence of β2GPI was measured as follows. […] In the ThT fluorescence assay, fluorescence of β2GPI in buffer, of CL or DXS500k in buffer, of buffer and ThT alone, and of β2GPI-CL adducts and β2GPI-DXS500k adducts, with or without ThT, was recorded as described above (section ThT fluorescence). In addition, TEM images were recorded with CL, β2GPI from human plasma, with or without CL, and with recombinant β2GPI, as described^5.
as §1
MSA (#126674, Calbiochem) was dissolved in 8 M urea, 100 mM Tris-HCl pH 8.2, at 10 mg ml^−1 final concentration. […] The presence of aggregates or fibrils was analyzed using TEM. […]

[3] = molecular target: T1, tPA; assay: ELISA, binding of β2GPI to immobilized tPA
Method: (§2) Binding of purified human factor XII from plasma (Calbiochem) or of purified recombinant human tPA to β2GPI purified from human plasma, or to recombinant human β2GPI was tested in an ELISA. Ten μg of factor XII or tPA in PBS was coated onto wells of a Costar 2595 ELISA plate (Cambridge, USA) and incubated with concentration series of the two β2GPI preparations. Binding of β2GPI was assessed with monoclonal antibody 2B2^22.

[4] = molecular target: T2, factor XII (Homo sapiens, UniProt P00748); assay: ELISA, binding of β2GPI to immobilized factor XII
T2 construct: purified human factor XII from plasma (Calbiochem); purchased Calbiochem; host or cells: human plasma
T2 sequence (P00748 20-615): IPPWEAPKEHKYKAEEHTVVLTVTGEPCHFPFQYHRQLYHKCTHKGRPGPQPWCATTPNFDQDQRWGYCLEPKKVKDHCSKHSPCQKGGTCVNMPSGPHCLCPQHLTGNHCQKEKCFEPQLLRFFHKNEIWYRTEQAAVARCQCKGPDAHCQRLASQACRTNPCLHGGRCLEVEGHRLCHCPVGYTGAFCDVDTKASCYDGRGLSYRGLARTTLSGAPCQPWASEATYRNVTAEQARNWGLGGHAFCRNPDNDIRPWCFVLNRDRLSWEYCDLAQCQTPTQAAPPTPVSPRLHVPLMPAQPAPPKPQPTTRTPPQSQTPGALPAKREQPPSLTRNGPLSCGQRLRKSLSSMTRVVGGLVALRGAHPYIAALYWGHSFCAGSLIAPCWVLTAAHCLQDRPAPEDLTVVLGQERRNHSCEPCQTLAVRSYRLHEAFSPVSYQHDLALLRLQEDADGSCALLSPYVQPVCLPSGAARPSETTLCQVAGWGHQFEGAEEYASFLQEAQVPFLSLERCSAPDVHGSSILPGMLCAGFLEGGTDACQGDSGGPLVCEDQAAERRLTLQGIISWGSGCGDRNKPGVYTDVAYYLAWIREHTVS
Method: as §2

[5] = molecular target: T3, fibronectin F4,5 (Homo sapiens, UniProt P02751); assay: Affinity determination ELISA, fibronectin F4,5 on coated (mis)folded proteins; format: binding; conditions: coated protein as labelled
T3 construct: human fibronectin finger 4,5 (Fn F4,5) fragment; made in house; host or cells: HEK293E
T3 sequence (P02751 182-276 limits assumed): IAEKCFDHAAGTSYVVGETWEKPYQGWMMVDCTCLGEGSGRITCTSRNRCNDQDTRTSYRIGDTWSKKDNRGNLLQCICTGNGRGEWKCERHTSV
Source text: (§3) Synthetic genes of human BiP, human fibronectin finger 4,5 (Fn F4,5) fragment, and human tissue-type plasminogen activator finger EGF (tPA F-EGF) fragment were ordered from Geneart (Regensburg, Germany). These DNA constructs were digested using BamHI and NotI, and ligated into vector pABC674 (ABC-expression facility, Utrecht University, The Netherlands), which contains a carboxy-terminal FLAG-tag—His-tag. HEK293E cells were transiently transfected with these constructs using the polyethylene-imine method, and grown for 5-6 days.
(§4) Denatured proteins and their native controls BSA (Sigma, A7906), glycated BSA, Hb (Sigma, H7605), glycated Hb, ovalbumin (Sigma, A6741), heat-denatured misfolded ovalbumin, human γ-globulins (Sigma, G4386), heat-denatured misfolded γ-globulins, alkyl-γ-globulins, lysozyme (ICN Biochemicals, 100831) and alkyl-lysozyme were coated on ELISA plates (Greiner Microlon high-binding, 655092) in 50 mM NaHCO3-buffer pH 9.6. The plates were blocked using Blocking reagent (Roche 1112589). […] Bound protein is detected by the FLAG-tag using 1:3000 anti-FLAG-HRP (Sigma A-8592) in PBS-T, or by 1:1000 Ni-NTA-HRP (Qiagen 34530) in PBS-T. The HRP reaction Is performed using the TMB substrate (Biosource 4501103 or Tebu Bio 101TMB100-500), stopped using 10% H2SO4 and absorbance was measured at 450 nm.

[6] = molecular target: T4, tPA F-EGF (Homo sapiens, UniProt P00750); assay: Affinity determination ELISA, tPA F-EGF on coated (mis)folded proteins; format: binding; conditions: coated protein as labelled, relative to native control
T4 construct: made in house; host or cells: HEK293E
T4 sequence (P00750 36-120 limits assumed): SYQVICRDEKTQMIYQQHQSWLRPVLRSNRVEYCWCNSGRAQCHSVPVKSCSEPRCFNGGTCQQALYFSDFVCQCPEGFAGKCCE
Source text: as §3, §4

[7] = molecular target: T1, tPA; assay: tPA/plasminogen activation assay; format: biochemical; conditions: β2gpi exposed to cardiolipin or alkylated, 100 μg/ml
Method: β2-GPI was reduced and alkylated as follows. Sixhundredforty μl of β2-GPI stock was mixed with 640 μl of 8 M Urea (cooled solution) in 0.1 M Tris pH-8.2. The solution was degassed with N2 gas for approximately 6 minutes. From a 1 M DTT stock 12.8 μl was added to the solution, mixed and incubated for 3 hours at room temperature. A 1 M Iodoacetamide (Sigma; I-6125) was prepared, of which 25.6 μl was added to the β2-GPI reaction mixture. The solution was subsequently dialysed against PBS. […] Signals obtained with alkyl-β2gpi are compared with those obtained with native β2gpi starting material and with positive control acid/heat denatured amyloid-like misfolded γ-globulins.
Exiqon Peptide Immobilizer plates were blocked for 1 hour with PBS, 1% Tween20 and rinsed twice with distilled water. The conversion of the chromogenic substrate S-2251 (Chromogenix, Italy) by plasmin was kinetically measured at 37° C. on a Spectramax340 microplate reader at a wavelength of 405 nm. […] Denatured γ-globulins (100 μg/ml) with amyloid-like structure was used as reference and positive control. Lyophilized γ-globulins (Sigma, Mo., USA) were dissolved in a 1(:)1 volume ratio of 1,1,1,3,3,3-hexafluoro-2-propanol and trifluoro-acetic acid and subsequently dried under air. […]
Protein therapeutics were obtained from the local hospital pharmacy and analyzed within the expiry limits as stated by the manufacturers.

T1 sequence (P00750 36-562): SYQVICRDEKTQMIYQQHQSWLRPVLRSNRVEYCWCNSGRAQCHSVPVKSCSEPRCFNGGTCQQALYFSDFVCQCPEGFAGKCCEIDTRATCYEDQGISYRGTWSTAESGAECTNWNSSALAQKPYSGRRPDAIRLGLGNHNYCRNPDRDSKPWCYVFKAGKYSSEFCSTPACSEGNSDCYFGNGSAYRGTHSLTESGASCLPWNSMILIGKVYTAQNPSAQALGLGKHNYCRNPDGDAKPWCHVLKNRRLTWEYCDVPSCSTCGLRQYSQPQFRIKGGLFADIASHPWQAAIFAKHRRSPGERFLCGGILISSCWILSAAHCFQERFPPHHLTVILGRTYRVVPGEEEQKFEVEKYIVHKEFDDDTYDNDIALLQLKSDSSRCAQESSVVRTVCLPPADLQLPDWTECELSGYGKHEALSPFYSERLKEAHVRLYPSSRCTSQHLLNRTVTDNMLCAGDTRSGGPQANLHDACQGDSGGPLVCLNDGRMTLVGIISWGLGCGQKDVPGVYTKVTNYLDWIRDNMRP

B1: β2GPI purified from fresh plasma: β2-glycoprotein I purified from fresh human plasma (protein)
chain: GRTCPKPDDLPFSTVVPLKTFYEPGEEITYSCKPGYVSRGGMRKFICPLTGLWPINTLKCTPRVCPFAGILENGAVRYTTFEYPNTISFSCNTGFYLNGADSAKCTEEGKWSPELPVCAPIICPPPSIPTFATLRVYKPSAGNNSLYRDTAVFECLPQHAMFGNDTITCTTHGNWTKLPECREVKCPFPSRPDNGFVNYPAKPTLYYKDKATFGCHDGYSLDGPEEIECTKLGNWSAMPSCKASCKVPVKKATVVYQGERVKIQEKFKNGMLHGDKVSFFCKNKEKKCSYTEDAQCIDGTIEVPKCFKEHSSLAFWKTDASDVKPC
With B1 the “stimulation of tPA-mediated conversion of Plg to Pls” value [1] was “not”, the ThT fluorescence signal ([2]; after exposure to CL or DXS500k) was “increased ThT fluorescence signal” and the “binding to tPA” value ([3]; listed as β2GPI purified from fresh human plasma) was “not”. The “binding to tPA” value ([3]; listed as β2GPI purified from plasma) was “does not bind” and the “binding to factor XII” value [4] was “not”.

B2: heat-denatured OVA: ovalbumin heated to 85° C. (protein)
chain: GSIGAASMEFCFDVFKELKVHHANENIFYCPIAIMSALAMVYLGAKDSTRTQINKVVRFDKLPGFGDSIEAQCGTSVNVHSSLRDILNQITKPNDVYSFSLASRLYAEERYPILPEYLQCVKELYRGGLEPINFQTAADQARELINSWVESQTNGIIRNVLQPSSVDSQTAMVLVNAIVFKGLWEKAFKDEDTQAMPFRVTEQESKPVQMMYQIGLFRVASMASEKMKILELPFASGTMSMLVLLPDEVSGLEQLESIINFEKLTEWTSSNVMEERKIKVYLPRMKMEEKYNLTSVLMAMGITDVFSSSANLSGISSAESLKISQAVHAAHAEINEAGREVVGSAEAGVDAASVSEEFRADHPFLFCIKHIATNAVLFFGRCVSP
With B2 the “presence of cross-β structure conformation” value ([2]; conclusion from ThT fluorescence, Plg-activation assay and TEM) was “comprise the cross-β structure conformation”, the “affinity for fibronectin F4,5” value [5] was “clear difference in binding affinity” and the “binding of tPA F-EGF” value [6] was “Much lower binding”.

B3: CL-β2gpi: β2gpi exposed to cardiolipin (protein)
chain: B1 chain
With B3 the “ability to activate tPA/plasminogen” value [7] was “accelerated”.
